The values that follow come from the DeepSol protein solubility set.

The data set is described as follows: soluble on expression in E. coli; label from the status in PepcDB or PDB records.
As to “MPIVNVKWQKEKYVVEVDTSAPPMVFKAQLFALTQVVPERQKVVIMGRTLGDDDWEGITIKENMTIMMMGSVGEIPKPPTVLEKKQANRDKQAEEISALYPCGLANLGNTCYFNSCVQMLKEVNELVLKPAEEMRIREHNDRLCHNLATLFNSLRDKDRALRSKGEPIKPFAAILTLSDSFPQFEKFKQQDANECLVSIMSNVTRIYGLSGWNIESLFRIQTETTMKCLESDEVSEKKVERNNQLTCYVNQDVRFLQTGIKAGFEEEMTRNSEELNRDAKWQKNTQISRLPKYLTVNINRFFYKESTKTNAKILKSVQFPMQLDTYDLCSQELKDKLVARRADIKLEEDAKLERELRKKVLDKEQGDKIFDDGVALPTAFEDDAGSNNSGFYDLKGIITHKGRSSQDGHYVAWMRSSEDGKWRLFDDEHVTVVDEEAILKTSGGGDWHSAYVLLYEARVIKQFPELPPAPVPTEVAADTAEPMEVSEKQ”, the “soluble on expression in E. coli” value is recorded as “not soluble”.

“GLEYRFSKSKQALELTSLRLKEKSEQLEHSQRVAIVGEIGSSLAHELNQPLAAIRNYSEGGLLRLAKKRPHEDIVPVLEKIQGQVERADAIIQRLRTLIRKRSVDKTPCDIQALIADTIELLHFRMQKQNVAIVTSVEGEIRPLLADSVGVQQVLVNVINNAIDACALFQEKYHSSGYQGKIALHCDYQANQLSIRILDNGTGLQQENPTQAFVSSKAEGLGLGLAICRDVMEMHGGEFLIASTTPHGCLVELVFPYQN”: the “soluble on expression in E. coli” value was “not soluble”.

As for “MLRRGLSRPEPRLLSKRYLSSATGGGSAGTTEGGSSETTPLRPRPNALTDEIIRVDHAGELGADRIYAGQMAILGNGPLGKTIGHMWEQEKEHRKQFEQLIQQHRVRPTIMTPIWNVAGFVLGAGTALMGEKAAMACTVAVETVIVEHYNDQLRQIMEAPNPDKELLATITKFRDEEQEHHDTGIDHGAEQAPFYQAMTEVIKFGCKTAIAISKKILEHHHHHH”, the “soluble on expression in E. coli” value is “not soluble”.

For the sequence “MFEWIKTFIAVYETKNFSTAAKQLYISQPTVSLQIKKLEQHFSIKLFYRNGKQSVIPTKEADFLYPKMLSIIESLTTSFAQAAEKENFKEDCIIASSNTVAIYLLPDIMESLVTAFPLINFSIQLMNSNEVVDMVQNNHAHIGLIEKPIETKNLHKEIVYEDQLVLAGDAASKFWLLREKNSGLRFFNELYLNEHSINLPIIELNNNEVLLQLLKNNIGQSIVSRLSISDEIPWQPIDQSFASRKIFIVQTDHHANTSFSEVYNRIVEKIRERQT”, the “soluble on expression in E. coli” value is reported as “not soluble”.

For “MGSDKIHHHHHHMRRQANSPSPDPVSTTRPVAWRPTLAKQKGETKHSALTERIIADIDAGVLKPMDRMPTHRDLARELGLSVQTVSLSYKEAERLGYLSGEIGRGTFVKTRVTERAGRMMLDHSPTEVLDLSIIRGVYLDDHENASRTILREMADSDNSGFMRPCRPVAGLDSHRETARTWLGMMGVTAGAERILVTNGAAHGIFLALSCIIRSNDVVLCENLTDHGIIGLSNILGFSLKGLPTDEEGILPDALEAACAAGGVRALVLIPTLNNPTGHVSGAARRQAIATIAERYGIFIIEDEVYRPMIEDDLPSITEMLPDLGFFVTSFTKTVLTGLRVGYLVVPPAYSIRAASILRVSSWSGTYLTAEIATRWVENGTARRLLDVQRTEARARQKIAVDILGDHIGSTHPLSFCAWLTVPPRWTEDGLVRALTNQNVAVTPSEPFIAGPGHGGGIRICLGGRLNHASLARALTTVRQTFEQLPPVYDIGSIG”, the “soluble on expression in E. coli” value was “not soluble”.

On to “MGRFLLVDKKAPNYENLIDKEMNEIYERVKKIDPNQNEFLQAFHEILYSLKPLFMEDPKYLPIIEMLSEPERLVQFRVCWIDDNGIQRKNRGFRVQFNSTLGIYKGGLRFHPSVNLSIVKFLGFEQIFKNSLTGLSMGGAKGGSDFDPKGKSDNEIMKFCQSFMNELYRHIGPRTDVPAGDIGVGGREIGYLFGQYKKIANSFNGTLTGKNEKWGGSILRTEATGYGLVYFVLEVLKSLNIQMDKQTAIVSGSGNVALYCVQKLLQLNVKVLTMSDSNGYIYEPNGFTNDDLNFIIELKEVRKGRIEEYLKHSSTAKYFPNEKPWNVKCTLAFPCATQNEIDLDDAKLLHKNGCILVGEGANMPSTIEAINYLKENKIILCPSKAANAGGVAISGLEMSQNFQFAKWTKETVDEKLKEIMKNIFISSSESALKYANNKYDLQVGANISGFLKVADSYIQQGL”, for which the “soluble on expression in E. coli” value is recorded as “soluble”.

With “PKNKAKKNPVRFYKNNFFMLKDKVNNIYVYVYEHKKNDNYNDLYLPRDNVFPYLGRVYINNDNGFIINDVYFSSERIGVKNYYDKDNPILINKHSSEGNRSYGYEPETFAEIKFKTKLDNISKSQIEYIIEFKPYDSIVDYVGDNIKKTLREPVKIEGTFEIIKEDEAEIIRLHNADIFGLYNVESILFSSERIFSGNVFNFDYLFINGKEKINSSINGVKEFSDEFLKDKINENKNIVESYVKESKQRHWKSLMDESILNYIDNYADYYNELKEFKSFNILYYDDKTISLYKRVSKLEDLKLAEIDNMFMTFELESQKLISPYIKDFVNDSEALLKKYNAPSDFYSNIDSLIFGITDSFIIIMNEKGCGKIFIDYKNIKEYINKDHYLAYLFN”, the “soluble on expression in E. coli” value was “not soluble”.

Regarding “MNFLEASWEEREVTAYKAILGDTGLGIFPLSHELFKRMSASGINPRWLTHGVFKSPPNGNRSTWAYITSGMSNPWETNEPEEHSGLGVEFIIETEKEETWAVEVLQMLMAYNLLLAAGQMGDFPLLGDGDRVPLALSDAIRTMMFTQPVSFPHCFSLKSGRVDLLQVVGITPAELQVAKQTSSDKIRTQLISKLGSLVTSKERESVVLEHHHHHH”, the “soluble on expression in E. coli” value is recorded as “not soluble”.

As to “MPEITVLMPVRNGERYIKESIDSVLNQTLTDFEFLIIDDGSTDRTVEIIQGYTDKRIRLVRKEHQFIQNLNEGLELASGSYIARMDADDIMHTERLRIQLKRMKKNPDITVCGTWAKIFSDKGNERNVSHLGYGIIHEPVLELLKYNMLLHPSVMIKKEFLLNHHIEYQNYPCVEDYKLWFDIAKAGGILFVEPQELLMFRRSDTQVTVTKKKEMSLGSIRLRKEILLYLLSIYNNKTLNSLLSDFENLEKNKWMSNEDIFRFFVNLFNRIQRDTMVLEHHHHHH”, the “soluble on expression in E. coli” value is listed as “soluble”.

Consider “GMSVNGIEVAKPFIAATVNVLSTMAGIQPQPGKPYVKKNNVAKGDVSAVIGITGHKNGSISVTFTKSCAIALVKGMLGDDIQDILQDTKDAVGEVTNMISGQARAGLAEMGMVFQGSTPSVIMGDGHTISHVTKSPIMAIPFLTNHGEFTVEFCFE”, for which the “soluble on expression in E. coli” value is reported as “soluble”.

Consider “LPDGIEEVLPPEAARIEVARRQVLDLFQSWGYEFVVTPHIEYLESLLTGAGSDLDLRTFKVIDPQSGRQMGFRADITPQVARIDAHTLKREGPSRLCYAGSVLHAQPRALSSSRSPIQLGAELYGDASPSSDVEVISLMLAMLQLADVPDVHMDLGHVGIYRGLARAAGLSGEVEQQLFDALQRKAIDEVVALTANLPPELASMLRALVDLCGGREVLDAARDRLAGAPAPVLEALDDLLAIADRLAARFPQLPLYFDLGELRGYHYHTGVVFAVFVPGVGQSIAQGGRYDDIGADFGRARPATGFSTDLKTLVTLGQAEIVL”, for which the “soluble on expression in E. coli” value was “not soluble”.

In the case of “MSKAGASLATCYGPVSADVMAKAENIRLLILDVDGVLSDGLIYMGNNGEELKAFNVRDGYGIRCALTSDIEVAIITGRKAKLVEDRCATLGITHLYQGQSNKLIAFSDLLEKLAIAPENVAYVGDDLIDWPVMEKVGLSVAVADAHPLLIPRADYVTRIAGGRGAVREVCDLLLLAQGKLDEAKGQSI”, the “soluble on expression in E. coli” value is “soluble”.

Take “MGSDKIHHHHHHMNFIDTLKSVDLILSTGEVPLIVGESGIGKTALANKLAKENDWSLIVIDGNLLKEGEIGGLPTIESYVGVNSNGYKTEKKTTVYAVHNKLREIDEEISKSKTVLLFIDEINRCEHTVQQELMNLILNREINGYKLHDDVKILAAMNPSSKYGSDFDYQVVDMDAAQENRFVWLNMESDHTQWIKWAIDEGIERKVIEFISTFPEYLHKINEDDVRATPRSYERVSKIYKVYKEKNNSIPRAVFLNVVKGNVGKVIAEEFISFIESNFEPLISYEDVFLGESIDESIVERVKNESHTRLYLSAMNILKDLELNIKNDKYESNHYINRFIEFLKMYPVDLMIGIMKDIRNSYIEVYKKAIENEEFVKSYFESYSLIRG”: the “soluble on expression in E. coli” value is on record as “not soluble”.

For the sequence “MKKTHVTIGLSNPKSPTNVGAVMRAAGCYQVDDVRYTGERYDRAAKFQTDTKKVASKIPLTSVNCLLDDLPEDMKVVCVELAEGAVSLPQFQHPDKAIYVFGPEDGSITQQVADRADHVVYVPTVGCMNLAATVNVLLYDRLAK”, the “soluble on expression in E. coli” value is recorded as “not soluble”.
